Assay results taken from US20170283484A1.

Legend:
[1] = biological target: HCV E2 envelope glycoprotein (hepatitis C virus) (UniProt P27958); experiment: ELISA of E2 on AP33 alanine mutants
[2] = biological target: AP33 antibody (wild type mouse monoclonal); experiment: peptide inhibition ELISA: antibody pre-incubated with peptide, then transferred to E2-coated plates (competitor: E2) [panel AP33]
AP33 antibody (wild type mouse monoclonal), sequence (VH, as listed by the source, chain 1 of 2): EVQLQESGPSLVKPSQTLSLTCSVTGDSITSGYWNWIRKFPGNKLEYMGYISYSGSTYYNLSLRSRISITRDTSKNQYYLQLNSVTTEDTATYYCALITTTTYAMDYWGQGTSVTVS
AP33 antibody (wild type mouse monoclonal), sequence (VL, as listed by the source, chain 2 of 2): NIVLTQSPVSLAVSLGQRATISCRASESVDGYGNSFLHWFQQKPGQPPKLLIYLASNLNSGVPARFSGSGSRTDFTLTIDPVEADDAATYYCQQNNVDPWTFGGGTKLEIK

HCV E2 envelope glycoprotein (hepatitis C virus), sequence (P27958 384-746 limits assumed): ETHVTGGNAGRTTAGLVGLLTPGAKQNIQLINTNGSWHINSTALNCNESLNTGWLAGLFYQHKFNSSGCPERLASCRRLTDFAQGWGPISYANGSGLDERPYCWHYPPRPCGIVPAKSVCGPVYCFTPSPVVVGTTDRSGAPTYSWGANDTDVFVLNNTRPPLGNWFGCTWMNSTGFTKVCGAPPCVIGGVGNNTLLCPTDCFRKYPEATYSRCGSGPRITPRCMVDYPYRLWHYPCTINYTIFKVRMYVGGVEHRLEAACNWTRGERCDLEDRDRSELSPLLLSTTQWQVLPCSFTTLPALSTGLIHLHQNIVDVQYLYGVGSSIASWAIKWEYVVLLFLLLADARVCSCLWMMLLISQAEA

Substance | reduction of binding relative to WT AP33 [1] | IC50 (read off the curve) [2]
AP33 mutant WL96A (antibody) | 90% | 
AP33 mutant FL32A (antibody) | 90% | 
AP33 mutant IH95A (antibody) | 90% | 
AP33 mutant YH58A (antibody) | 90% | 
AP33 mutant YH33A (antibody) | 90% | 
AP33 mutant NL91A (antibody) | 90% | 
peptide corresponding to the WT AP33 epitope (aa residues 412-424 of E2) (from UniProt P27958 412-424) |  | 0.1 µg/mL
